Target: RSV phosphoprotein fragment P_(127–163) (respiratory syncytial virus (RSV)) (UniProt P12579)
Assay: SAXS; SEC-SAXS, 293 K, 200 µM P127-163 in 20 mM Na phosphate pH 6.5, 100 mM NaCl; scattering curve fitted with the NMR structure on the FoXs server

Work on “RSV phosphoprotein fragment P_(127–163) (from UniProt P12579 127-163) (domain or fragment)” yielded a stoichiometry N of 4.

Source: article PMC8392014
